Data taken from patent publication US20020086312A1 (IMMUNEX, published 2002).
One block for each molecule: values may come before it.

What was measured:
[1] = target: T1, murine RANK, endogenous on RAW 264.7 cells (murine) (UniProt O35305); test: cell-based or functional assay
T1 sequence: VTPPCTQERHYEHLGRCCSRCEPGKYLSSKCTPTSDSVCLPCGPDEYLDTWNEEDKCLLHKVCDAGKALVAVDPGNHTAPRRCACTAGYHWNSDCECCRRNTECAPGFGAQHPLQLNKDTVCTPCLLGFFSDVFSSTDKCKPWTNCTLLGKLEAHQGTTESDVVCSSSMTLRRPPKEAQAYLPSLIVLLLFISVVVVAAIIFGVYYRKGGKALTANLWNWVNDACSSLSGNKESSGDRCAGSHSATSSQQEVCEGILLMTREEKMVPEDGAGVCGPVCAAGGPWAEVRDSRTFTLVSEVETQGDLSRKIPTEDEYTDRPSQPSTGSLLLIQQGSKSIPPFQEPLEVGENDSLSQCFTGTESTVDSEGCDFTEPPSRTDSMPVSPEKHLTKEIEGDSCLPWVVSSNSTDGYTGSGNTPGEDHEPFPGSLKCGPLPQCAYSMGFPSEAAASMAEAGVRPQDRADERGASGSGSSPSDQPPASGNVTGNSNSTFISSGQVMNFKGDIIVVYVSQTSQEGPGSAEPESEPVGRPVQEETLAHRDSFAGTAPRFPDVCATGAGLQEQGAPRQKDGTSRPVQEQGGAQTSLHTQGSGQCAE

[2] = target: T2, full-length human RANK (SEQ ID NO:2) (human, UniProt Q9Y6Q6 29-616); test: cell-based or functional assay
T2 sequence: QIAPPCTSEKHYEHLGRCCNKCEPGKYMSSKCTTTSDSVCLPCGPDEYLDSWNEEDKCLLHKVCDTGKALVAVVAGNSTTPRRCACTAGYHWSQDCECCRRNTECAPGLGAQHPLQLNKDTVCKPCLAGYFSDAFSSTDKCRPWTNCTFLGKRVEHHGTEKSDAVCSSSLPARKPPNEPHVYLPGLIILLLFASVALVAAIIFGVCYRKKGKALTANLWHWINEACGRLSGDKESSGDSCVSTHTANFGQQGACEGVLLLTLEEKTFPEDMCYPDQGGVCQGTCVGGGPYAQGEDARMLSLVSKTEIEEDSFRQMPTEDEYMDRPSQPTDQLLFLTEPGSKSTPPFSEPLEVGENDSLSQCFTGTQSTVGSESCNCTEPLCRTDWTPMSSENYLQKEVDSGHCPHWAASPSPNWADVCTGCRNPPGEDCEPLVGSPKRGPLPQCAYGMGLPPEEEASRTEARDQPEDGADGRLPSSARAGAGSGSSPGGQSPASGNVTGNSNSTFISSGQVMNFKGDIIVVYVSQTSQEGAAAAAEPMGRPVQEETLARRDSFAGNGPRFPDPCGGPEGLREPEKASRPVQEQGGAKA

induction of the MMP-9/luciferase promoter in transfected RAW 264.7 cells, 1 ug/ml for 18 hours [1]: 10 to 15 fold | mouse MMP-9 mRNA in RAW 264.7 cells by quantitative RT-PCR, 200 ng/ml [1]: > 350 fold | mouse TRAP mRNA in RAW 264.7 cells by quantitative RT-PCR, 200 ng/ml [1]: > 250 fold
Molecule: leucine zipper form of murine RANK-L (from UniProt O35235 70-316) (ligand)

32P incorporation into a c-src-specific substrate by extracts of RANK -/- spleen cells expressing wild-type RANK, after differentiation in CSF-1 and mRANK-L [2]: 15 fold | F-actin ring formation (fluorescent phalloidin staining) in RANK -/- cells expressing wild-type RANK, cultured 5 days with CSF-1 and mRANK-L (% of the cells) [2]: > 50
Molecule: murine RANK-L (mRANK-L, 200 ng/ml in the differentiation medium) (from UniProt O35235 70-316) (ligand)

luciferase reporter expression from the human TRAP promoter, co-transfected 293/EBNA cells [2]: ~1.5 fold | luciferase reporter expression from the mouse TRAP promoter, co-transfected 293/EBNA cells [2]: ~4 fold | luciferase reporter expression from the murine MMP-9 promoter, co-transfected 293/EBNA cells [2]: 2.5 fold
B1: human full-length RANK-L (SEQ ID NO:6) (ligand)
chain: MRRASRDYTKYLRGSEEMGGGPGAPHEGPLHAPPPPAPHQPPAASRSMFVALLGLGLGQVVCSVALFFYFRAQMDPNRISEDGTHCIYRILRLHENADFQDTTLESQDTKLIPDSCRRIKQAFQGAVQKELQHIVGSQHIRAEKAMVDGSWLDLAKRSKLEAQPFAHLTINATDIPSGSHKVSLSSWYHDRGWAKISNMTFSNGKLIVNQDGFYYLYANICFRHHETSGDLATEYLQLMVYVTKTSIKIPSSHTLMKGGSTKYWSGNSEFHFYSINVGGFFKLRSGEEISIEVSNPSLLDPDQDATYFGAFKVRDID
